Data reported in patent US20220072087A1, “SPECIFIC COMBINATION THERAPY FOR TREATMENT OF PANCREATIC CANCER” (BioLineRx Ltd., priority 2019, published 2022).
Bridge positions count the residues as written; N and C are the ends. Square brackets hold non-standard residues; d marks the D form. * marks the point of attachment. 2Nal = N[C@@H](Cc1ccc2ccccc2c1)C(=O)O; Benzoyl(4-F) = O=C(c1ccc(F)cc1)*; Cit = NC(=O)NCCC[C@H](N)C(=O)O

What was measured:
human keratinocytes = conditions: cited from earlier work
[1] = solubility of BL-8040 powder; format: physicochemical
CXCR4 = CXCR4 (Homo sapiens, UniProt P61073); conditions: read-out: IC50 (binds to CXCR4 with high affinity); cited from earlier work
Chain of CXCR4 (P61073 whole entry, species assumed): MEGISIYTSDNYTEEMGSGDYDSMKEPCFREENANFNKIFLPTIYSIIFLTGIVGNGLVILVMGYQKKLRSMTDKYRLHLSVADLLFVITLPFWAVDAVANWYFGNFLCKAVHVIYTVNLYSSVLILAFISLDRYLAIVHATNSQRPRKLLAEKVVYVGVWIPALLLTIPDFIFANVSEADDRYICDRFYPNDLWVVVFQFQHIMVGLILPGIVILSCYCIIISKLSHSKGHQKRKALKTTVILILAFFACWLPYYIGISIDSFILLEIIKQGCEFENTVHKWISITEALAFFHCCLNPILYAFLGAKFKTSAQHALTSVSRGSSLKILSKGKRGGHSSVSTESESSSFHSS

[2] = system: normal human hematopoietic cells; conditions: cited from earlier work

**Q.** With “BL-8040 ({Benzoyl(4-F)}-RR[2Nal]CY[Cit]K[dK]PYR[Cit]CR-NH2; disulfide 4-13 (inferred))” as the substance, how does the effect on viability (human keratinocytes) read?
**A.** did not affect the viability

**Q.** What about the solubility ([1]; in 0.45% Sodium Chloride (half normal saline)) of the same substance?
**A.** freely soluble

**Q.** What about the solubility ([1]; in water) of the same substance?
**A.** freely soluble

**Q.** What about the IC50 (CXCR4) of the same substance?
**A.** 0.54 to 4.5 nM

**Q.** What about the effect on viability [2] of the same substance?
**A.** did not affect the viability
